Results: paper doi:10.1101/2021.12.04.471219 (bioRxiv, 2021)
Values joined by “and” are separate entries in the source; they are usually repeats but may differ in a detail not shown here. Identical values can stand only once.

T1: LNX2 PDZ2 domain (residues 334-426) (human, UniProt Q8N448 334-426)
T1 sequence: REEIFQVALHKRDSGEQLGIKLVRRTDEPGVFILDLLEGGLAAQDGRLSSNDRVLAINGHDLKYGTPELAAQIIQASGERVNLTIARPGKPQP

T2: MPP5 PDZ domain (residues 238-336) (human, UniProt Q8N3R9 238-336)
T2 sequence: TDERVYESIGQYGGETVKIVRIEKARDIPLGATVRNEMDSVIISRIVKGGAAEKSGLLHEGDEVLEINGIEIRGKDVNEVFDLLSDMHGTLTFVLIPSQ

B1: ZO-1 PDZ2 domain (residues 184-264) (domain or fragment)
chain: PTKVTLVKSRKNEEYGLRLASHIFVKEISQDSLAARDGNIQEGDVVLKINGTVTENMSLTDAKTLIERSKGKLKMVVQRDE

Columns and labels:
[1] = biological target: MLLT4 PDZ domain (residues 961-1056) (human) (UniProt P55196); test: MST
[2] = biological target: B1; test: MST
[3] = biological target: PARD3 PDZ3 domain (residues 582-685) (human, UniProt Q8TEW0 582-685); test: MST
[4] = biological target: T1, LNX2 PDZ2 domain (residues 334-426); test: MST
[5] = biological target: T2, MPP5 PDZ domain (residues 238-336); test: MST
[6] = biological target: the molecule itself; test: AUC

Chain of PARD3 PDZ3 domain (residues 582-685) (Q8TEW0 582-685): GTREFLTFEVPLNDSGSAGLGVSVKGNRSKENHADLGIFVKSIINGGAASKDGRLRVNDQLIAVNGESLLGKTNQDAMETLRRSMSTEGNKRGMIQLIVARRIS

Molecule: C-terminal SARS-CoV-2-E PBM peptide (12-mer, original strain)
- Kd [1]: 569 µM

Molecule: NLNSSRVPDLLV [C-terminal SARS-CoV-2-E PBM peptide (12-mer, original strain)]
- Kd [2]: 15 µM
- Kd [3]: 341 µM
- Kd [4]: 289 µM
- Kd [5]: 30 µM

Molecule: B1
- stoichiometry N [6]: 2 and ~4
